The text below walks through data of US20240409663A1 (CONCEPT TO MEDICINE BIOTECH, published 2024).

Residue numbers refer to the chain shown, from its start. Like-named read-outs stand apart in the source and are kept apart here.

The target of test [1] is T1, human GPC3 on cells (human, UniProt P51654 25-554). The test can be described thus: FACS, HEPG2 cells.
For test [2], the target named is T1, human GPC3 on cells. The test can be described thus: FACS, HEPG2 cells. This is another data set of the same source.
Test [3] concerns the target T1, human GPC3 on cells. The test can be described thus: FACS, Huh-7 cells.
Test [4] deals with T1, human GPC3 on cells. The test can be described thus: FACS, GPC3-CHOK1 cells. (In flow cytometry, cells or beads pass a laser one at a time.)
The target in test [5] is T1, human GPC3 on cells. The test can be described thus: FACS, GPC3-CHOK1 cells. The source holds these as a separate data set.
Test [6] concerns the target T1, human GPC3 on cells. The test can be described thus: cell-based or functional assay.
The target in test [7] is T1, human GPC3 on cells. The test can be described thus: FACS, HEPG2 cells. The text has this: (§1) FACS was used to evaluate the binding activity of Hu 52H5D3B8-7 and Hu 52H5D3B8-8 with comparison to benchmark antibodies GC33 and Y035 on human GPC3 expressed on CHOK1 cells, Huh-7 cell and HEPG2 cells. In order to evaluate the properties of CDRs and frameworks of Hu 52H5D3B8-7 Ab, two chimeric antibodies were generated. The antibody termed “Hu 52H5D3B8-7/8 CDRs with Y035 FRs” contains the Hu 52H5D3B8-7 CDRs and the Y035 FRs. The antibody termed “Y035 CDRs with Hu 52H5D3B8-7 FRs” represents the chimeric antibody with the Y035 CDRs engrafted to Hu 52H5D3B8-7 FRs.

The target of test [8] is T1, human GPC3 on cells. The test can be described thus: FACS, Huh-7 cells.
Text: as §1

For test [9], the target named is T1, human GPC3 on cells. The test can be described thus: FACS, GPC3-CHOK1 cells.
Text: as §1

For test [10], the target named is T1, human GPC3 on cells. The test can be described thus: cell-based or functional assay. The source holds these as a separate data set.
Test [11] concerns the target T1, human GPC3 on cells. The test can be described thus: FACS, GPC3-CHOK1 cells. As to the method: To evaluate the antigen binding property, the affinity maturated antibodies were analyzed for their binding to human GPC3 over-expressed CHOK1 cells by FACS as previously described.
This is another data set of the same source.

Test [12] deals with T1, human GPC3 on cells. The test can be described thus: cell-based or functional assay. The source holds these as a separate data set.
The target of test [13] is T1, human GPC3 on cells. The test can be described thus: cell-based or functional assay. This is another data set of the same source.
The target in test [14] is T1, human GPC3 on cells. The test can be described thus: FACS, Huh-7 cells. As to the method: (§2) To evaluate the antigen binding property, the humanized antibodies were analyzed for their binding to human GPC3 over-expressed CHOK1 cells and Huh-7 cells by FACS. Briefly, GPC3-CHOK1 cells and Huh-7 cells were firstly incubated with Fc blocking reagent at 4° C. for 15 mins. Cells were washed by FACS buffer and divided to each well with 4-fold serially diluted humanized antibodies starting at 10 μg/mL at 4° C. for 60 mins. Cells were washed by FACS buffer and fixed with 2% PFA at RT for 15 mins. […] As different plates might affect the EC50 of 52H5D3B8-VH+VL, the 12 humanized antibodies were separated into two plates.
This is another data set of the same source.

In test [15] the target is T1, human GPC3 on cells. The test can be described thus: FACS, GPC3-CHOK1 cells. As for the experimental part: as §2
The source holds these as a separate data set.

In test [16] the target is T2, human GPC3-his tag protein (human, UniProt P51654 25-559, limits assumed).
T2 construct: recombinant soluble antigen used as analyte in all Biacore runs; also called recombinant GPC3 protein; rhGPC3-His; not shown: His tag
The test can be described thus: SPR Biacore 8K, mAb captured, affinity ranking. As for the experimental part:
To evaluate antigen binding activity, the chimeric antibody's affinity was measured by Biacore 8K. Two concentrations with most close affinity to the chimeric antibody's affinity were chosen for the 12 humanized antibodies' affinity detection. Human GPC3-his tag protein was injected over captured antibody for 3 mins at a flow rate of 30 μl/min. The antigen was allowed to dissociate for 720 s.
Background: In SPR one partner is held on a chip, and binding of the other changes the refractive index at the surface.

The target of test [17] is T1, human GPC3 on cells. The test can be described thus: FACS, Huh-7 cells. As for the experimental part:
as §2
This is another data set of the same source.

Test [18] concerns the target T1, human GPC3 on cells. The test can be described thus: FACS, GPC3-CHOK1 cells. As for the experimental part:
as §2
This is another data set of the same source.

B1: Y035 (Carsgen Therapeutics, US20190046659) (antibody, from another filing, V domains shown)
VH: EVQLVQSGAEVKKPGASVKVSCKASGYTFSDYEMHWVRQAPGQGLEWMGAIHPGSGDTAYNQRFKGRVTITADKSTSTAYMELSSLRSEDTAVYYCARFYSYAYWGQGTLVTVSA
VL: DIVMTQTPLSLPVTPGEPASISCRSSQSLVHSNGNTYLQWYLQKPGQSPQLLIYKVSNRFSGVPDRFSGSGSGTDFTLKISRVEAEDVGVYYCSQSIYVPYTFGQGTKLEIKR
As for B1, the EC50 came out at 1.25 nM in test [1]; 1.59 nM in test [2]; 1.18 nM in [3]; 1.46 nM in [4]; 1.42 nM in test [5]. The internalization activity to HEPG2 cells, EC50 (pHAb dye fluorescence) in test [6] is 1.08 µg/mL. Further, the internalization activity to HEPG2 cells, Top (pHAb dye fluorescence) in test [6] worked out at 52000.

B2: Y035 CDRs with Hu 52H5D3B8-7 FRs (antibody, V domains shown)
VH: B1 VH with S30T, I70M, T76I, S85R, E89D, A97T, A115S
VL: DVVMTQTPLSLSVTPGQPASISCRSSQSLVHSNGNTYLQWYLQKPGQSPQLLIYKVSNRFSGVPDRFSGSGSGTDFTLKISRVEAEDVGVYYCSQSIYVPYTFGGGTKVEIK
In the case of B2, the EC50 in test [7] stood at 1.05 nM; in test [8], 0.667 nM; in test [9] it was 0.985 nM. Besides, the “internalization activity to HEPG2 cells, EC50 (pHAb dye fluorescence)” value in [10] stood at 1.11 µg/mL.

B3: Hu 52H5D3B8-7/8 CDRs with Y035 FRs (antibody, V domains shown)
VH: B1 VH with F29H, D57G, R63K
VL: B1 VL with Y98H
Consider B3, for which the EC50 in test [7] came out at 1.16 nM; in [8] it was 0.782 nM; in test [9] it was 0.798 nM. Moreover, the “internalization activity to HEPG2 cells, EC50 (pHAb dye fluorescence)” value in test [10] was found to be 1.14 µg/mL.

B4: 52H5D3B8-18#-VH2+VL3 (antibody, V domains shown)
VH: QVQLVQSGAEVKKPGASVKVSCKASGYTFTRYEMHWVRQAPGQGLEWIGAIHPGSGGTAYNSKFKGRVTMTADTSTSTVYMELSSLRSEDTAVYYCTRYYSYAYWGQGTLVTVSS
VL: B2 VL with V2I, Q50K, F60Y, S94V, Q95E, Y98H, V109L
Turning to B4, the EC50 in test [11] came out at 0.177 nM. Also, in test [12], the “EC50 of ADCC signaling (Jurkat-hCD16a-NFAT luciferase reporter), HEPG2 cells” value (from here on “EC50 of ADCC signaling … HEPG2 cells”) was determined as 0.202 nM and the “EC50 of ADCC signaling (Jurkat-hCD16a-NFAT luciferase reporter), Huh-7 cells” value (“EC50 of ADCC signaling … Huh-7 cells” for short) is 0.48 nM. In addition, in [13], the “EC50 of ADCC cytotoxicity (primary NK cells, LDH), HEPG2 cells” value (“EC50 of ADCC cytotoxicity … HEPG2 cells” for short) is 0.149 nM and the “EC50 of ADCC cytotoxicity (primary NK cells, LDH), Huh-7 cells” value (from here on “EC50 of ADCC cytotoxicity … Huh-7 cells”) turned out to be 0.0826 nM.

B5: Hu 52H5D3B8-11 (antibody, V domains shown)
VH: EVQLVQSGAEVKKPGASVKVSCKASGYTFTDYEMHWVRQAPGQGLEWIGAIHPGSGGTAYNQKFKGKATLTADKSISTAYMELSRLRSDDTAVYYCTRFYSYAYWGQGTLVTVSS
VL: B2 VL with Y98H
notes: humanized 52H5D3B8; also called 52H5D3B8 VH5 + VL0
B5 registered a concentration for a half-maximal effect (EC50) in [14] of 0.0288 mg/L. Besides, the EC50 in test [15] was determined as 0.04 mg/L. Further, in test [16], binding was put at a Kd of 3.06 nM, the koff came to 0.000905 s⁻¹ and the kon turned out to be 295000 M⁻¹ s⁻¹.

B6: Hu 52H5D3B8-12 (antibody, V domains shown)
VH: B5 VH
VL: B2 VL with Y92F, Y98H
notes: humanized 52H5D3B8; also called 52H5D3B8 VH5 + VL1
With B6, it took 0.0294 mg/L to reach a half-maximal effect in test [14] (EC50). The molecule also yielded an EC50 in [15] of 0.0384 mg/L. Besides, in [16], binding was put at a Kd of 3.22 nM, the koff amounted to 0.001 s⁻¹ and the kon was found to be 310000 M⁻¹ s⁻¹.

B7: Hu 52H5D3B8-10 (antibody, V domains shown)
VH: B5 VH with K67R, A68V
VL: B2 VL with Y92F, Y98H
notes: humanized 52H5D3B8; also called 52H5D3B8 VH4 + VL1
With B7, the EC50 in test [14] amounted to 0.0323 mg/L. This molecule also had an EC50 in [15] of 0.0389 mg/L. In test [16], this molecule registered a Kd of 3.89 nM, a koff of 0.00104 s⁻¹ and a kon of 267000 M⁻¹ s⁻¹.

B8: Hu 52H5D3B8-7 (antibody, V domains shown)
VH: B5 VH with I48M, K67R, A68V, L70M
VL: B2 VL with Y98H
notes: humanized 52H5D3B8; also called 52H5D3B8 VH3 + VL0
As for B8, the EC50 in test [17] was determined as 0.0242 mg/L; in test [7] it was 0.757 nM; in [8] it was 0.464 nM; in test [18], 0.0447 mg/L; in test [9], 0.467 nM. Besides, the “internalization activity to HEPG2 cells, EC50 (pHAb dye fluorescence)” value in [10] was 0.72 µg/mL. The Kd in test [16] came out at 3.23 nM. In test [16], this molecule came in with a koff of 0.00103 s⁻¹. This molecule displayed a kon in test [16] of 320000 M⁻¹ s⁻¹.

B9: 52H5D3B8-19#-VH2+VL3 (antibody, V domains shown)
VH: B4 VH with R31G, S62Q
VL: B2 VL with V2I, Q50K, S61A, S94V, Q95E, Y98H, V109L
As for B9, in [11], the EC50 worked out at 0.207 nM. Besides, in [12], the “EC50 of ADCC signaling … HEPG2 cells” value was determined as 0.0844 nM and the “EC50 of ADCC signaling … Huh-7 cells” value was 0.266 nM. In [13], the “EC50 of ADCC cytotoxicity … HEPG2 cells” value worked out at 0.0852 nM and the “EC50 of ADCC cytotoxicity … Huh-7 cells” value amounted to 0.0328 nM.

B10: 52H5D3B8-20#-VH2+VL3 (antibody, V domains shown)
VH: B4 VH with T28R, R31D, S62Q, K63L
VL: B2 VL with V2I, Q50K, S61P, S94V, Q95E, Y98H, V109L
Molecule B10 displayed an EC50 in [11] of 0.207 nM. In test [12], the “EC50 of ADCC signaling … HEPG2 cells” value worked out at 0.0571 nM and the “EC50 of ADCC signaling … Huh-7 cells” value is 0.124 nM. Besides, in [13], the “EC50 of ADCC cytotoxicity … HEPG2 cells” value worked out at 0.121 nM and the “EC50 of ADCC cytotoxicity … Huh-7 cells” value worked out at 0.0287 nM.

B11: Hu 52H5D3B8-8 (antibody, V domains shown)
VH: B5 VH with I48M, K67R, A68V, L70M
VL: B2 VL with Y92F, Y98H
notes: humanized 52H5D3B8; also called 52H5D3B8 VH3 + VL1
Turning to B11, the EC50 amounted to 0.0233 mg/L in [17]; 0.693 nM in test [7]; 0.418 nM in test [8]; 0.0432 mg/L in [18]; 0.434 nM in test [9]. Besides, the “internalization activity to HEPG2 cells, EC50 (pHAb dye fluorescence)” value in [10] stood at 0.78 µg/mL. The same molecule had a Kd in test [16] of 3.31 nM. The koff in [16] was 0.0011 s⁻¹. In test [16], this molecule returned a kon of 332000 M⁻¹ s⁻¹.

Broadly, the EC50 is the midpoint of the concentration-response curve. Read a low EC50 as higher potency in that assay. What is called Kd is the constant that tells how readily two partners part at equilibrium. A higher Kd goes with a looser complex. In general, koff refers to a measure of how fast the partners let go of each other. Broadly, the kon is the rate constant with which the complex forms. A high value points to faster complex formation.
